Source: patent US20220033483A1 (GUAGNDONG FEIPENG BIOLOGICAL, published 2022)

B1: WT 1-4 (antibody, V domains shown)
VH: QVQLQQSGTELAKPGASVKFSCKASDYTFSTYWMYWIKQRPGQGLEWIGYINPSSGHTEYNQRFKDKATLTADKSSSTAYMQLNSLTSEDSAVYYCARKYYGPFAMDYWGQGTSVTVSS
VL: EIFLTQSPAIMSASPGEKVTMTCSASTTVSYAHWYQQKSGTSPKRWLYDSSKIASGIPVRFSGSGSGTSYSLTISSMEAEDAATYYCQNWSTNPYTFGGGTKLEIKR
B2: Mutation 1-1 (antibody, V domains shown)
VH: QVQLQQSGTELAKPGASVKFSCKASGYTFSTYWMYWIKQRPGQGLEWIGYINPSTGHTDYNQKFKDKATLTADKSSSTAYMQLNSLTSEDSAVYYCARRYYGPFGMDYWGQGTSVTVSS
VL: EIFLTQSPAIMSASPGEKVTMTCSASSSVSYVHWYQQKSGTSPKRWIYDTSKIASGIPVRFSGSGSGTSYSLTISSMEAEDAATYYCQQWSTNPYTFGGGTKLEIKR
B3: Mutation 1-4 (antibody, V domains shown)
VH: QVQLQQSGTELAKPGASVKFSCKASGYTFSTYWMYWIKQRPGQGLEWIGYINPSSGHTDYNQRFKDKATLTADKSSSTAYMQLNSLTSEDSAVYYCARKYYGPFGMDYWGQGTSVTVSS
VL: EIFLTQSPAIMSASPGEKVTMTCSASTTVSYVHWYQQKSGTSPKRWLYDTSKIASGIPVRFSGSGSGTSYSLTISSMEAEDAATYYCQQWSTNPYTFGGGTKLEIKR
B4: Mutation 1-8 (antibody, V domains shown)
VH: QVQLQQSGTELAKPGASVKFSCKASGYTFSTYWMYWIKQRPGQGLEWIGYINPSTGHTDYNQKFKDKATLTADKSSSTAYMQLNSLTSEDSAVYYCARRYWGPFGMDYWGQGTSVTVSS
VL: EIFLTQSPAIMSASPGEKVTMTCSASTTVSYVHWYQQKSGTSPKRWLYDTSKIASGIPVRFSGSGSGTSYSLTISSMEAEDAATYYCQQWSTQPYTFGGGTKLEIKR
B5: Mutation 1-9 (antibody, V domains shown)
VH: QVQLQQSGTELAKPGASVKFSCKASGYTFSSYWMYWIKQRPGQGLEWIGYINPSSGHTDYNQRFKDKATLTADKSSSTAYMQLNSLTSEDSAVYYCARKYFGPFGMDYWGQGTSVTVSS
VL: EIFLTQSPAIMSASPGEKVTMTCSASSSVSYVHWYQQKSGTSPKRWIYDTSKIASGIPVRFSGSGSGTSYSLTISSMEAEDAATYYCQQWSTQPYTFGGGTKLEIKR
B6: Mutation 1-10 (antibody, V domains shown)
VH: QVQLQQSGTELAKPGASVKFSCKASGYTFTSYWMYWIKQRPGQGLEWIGYINPSTGHTDYNQRFKDKATLTADKSSSTAYMQLNSLTSEDSAVYYCARKYYGPFGMDYWGQGTSVTVSS
VL: EIFLTQSPAIMSASPGEKVTMTCSASSTVSYVHWYQQKSGTSPKRWLYDTSKLASGIPVRFSGSGSGTSYSLTISSMEAEDAATYYCQQWSTQPYTFGGGTKLEIKR
B7: Mutation 1-12 (antibody, V domains shown)
VH: QVQLQQSGTELAKPGASVKFSCKASGYTFSTYWMYWIKQRPGQGLEWIGYLNPSTGHTDYNQRFKDKATLTADKSSSTAYMQLNSLTSEDSAVYYCARRYFGPFGMDYWGQGTSVTVSS
VL: EIFLTQSPAIMSASPGEKVTMTCSASTTVSYVHWYQQKSGTSPKRWLYDTSKIASGIPVRFSGSGSGTSYSLTISSMEAEDAATYYCQQWSTQPYTFGGGTKLEIKR
B8: Mutation 1-16 (antibody, V domains shown)
VH: QVQLQQSGTELAKPGASVKFSCKASGYTFSTYWMYWIKQRPGQGLEWIGYINPSSGHTDYNQKFKDKATLTADKSSSTAYMQLNSLTSEDSAVYYCARKYYGPFGMDYWGQGTSVTVSS
VL: EIFLTQSPAIMSASPGEKVTMTCSASTTVSYVHWYQQKSGTSPKRWLYDTSKIASGIPVRFSGSGSGTSYSLTISSMEAEDAATYYCQQWSTQPYTFGGGTKLEIKR
B9: Mutation 1-18 (antibody, V domains shown)
VH: QVQLQQSGTELAKPGASVKFSCKASGYTFTTYWMYWIKQRPGQGLEWIGYINPSSGHTDYNQRFKDKATLTADKSSSTAYMQLNSLTSEDSAVYYCARRYFGPFGMDYWGQGTSVTVSS
VL: EIFLTQSPAIMSASPGEKVTMTCSASTTVSYVHWYQQKSGTSPKRWLYDTSKLASGIPVRFSGSGSGTSYSLTISSMEAEDAATYYCQQWSSQPYTFGGGTKLEIKR
B10: Mutation 1-22 (antibody, V domains shown)
VH: QVQLQQSGTELAKPGASVKFSCKASGYTFTTYWMYWIKQRPGQGLEWIGYLNPSSGHTDYNQKFKDKATLTADKSSSTAYMQLNSLTSEDSAVYYCARKYYGPFGMDYWGQGTSVTVSS
VL: EIFLTQSPAIMSASPGEKVTMTCSASTTVSYVHWYQQKSGTSPKRWLYDTSKLASGIPVRFSGSGSGTSYSLTISSMEAEDAATYYCQQWSSQPYTFGGGTKLEIKR
B11: Mutation 1-24 (antibody, V domains shown)
VH: QVQLQQSGTELAKPGASVKFSCKASGYTFSTYWMYWIKQRPGQGLEWIGYINPSTGHTDYNQKFKDKATLTADKSSSTAYMQLNSLTSEDSAVYYCARRYFGPFGMDYWGQGTSVTVSS
VL: EIFLTQSPAIMSASPGEKVTMTCSASSTVSYVHWYQQKSGTSPKRWLYDTSKIASGIPVRFSGSGSGTSYSLTISSMEAEDAATYYCQQWSSNPYTFGGGTKLEIKR
B12: Mutation 1-25 (antibody, V domains shown)
VH: QVQLQQSGTELAKPGASVKFSCKASGYTFSSYWMYWIKQRPGQGLEWIGYINPSSGHTDYNQRFKDKATLTADKSSSTAYMQLNSLTSEDSAVYYCARRYYGPFGMDYWGQGTSVTVSS
VL: EIFLTQSPAIMSASPGEKVTMTCSASTSVSYVHWYQQKSGTSPKRWIYDTSKIASGIPVRFSGSGSGTSYSLTISSMEAEDAATYYCQQWSSNPYTFGGGTKLEIKR
B13: Mutation 1-28 (antibody, V domains shown)
VH: QVQLQQSGTELAKPGASVKFSCKASGYTFSTYWMYWIKQRPGQGLEWIGYLNPSTGHTDYNQRFKDKATLTADKSSSTAYMQLNSLTSEDSAVYYCARKYYGPFGMDYWGQGTSVTVSS
VL: EIFLTQSPAIMSASPGEKVTMTCSASTTVSYVHWYQQKSGTSPKRWLYDTSKIASGIPVRFSGSGSGTSYSLTISSMEAEDAATYYCQQWSSNPYTFGGGTKLEIKR
B14: Mutation 1-32 (antibody, V domains shown)
VH: QVQLQQSGTELAKPGASVKFSCKASGYTFSTYWMYWIKQRPGQGLEWIGYLNPSSGHTDYNQRFKDKATLTADKSSSTAYMQLNSLTSEDSAVYYCARKYWGPFGMDYWGQGTSVTVSS
VL: EIFLTQSPAIMSASPGEKVTMTCSASSTVSYVHWYQQKSGTSPKRWLYDTSKIASGIPVRFSGSGSGTSYSLTISSMEAEDAATYYCQQWSSNPYTFGGGTKLEIKR
B15: Mutation 1-34 (antibody, V domains shown)
VH: QVQLQQSGTELAKPGASVKFSCKASGYTFTSYWMYWIKQRPGQGLEWIGYINPSSGHTDYNQKFKDKATLTADKSSSTAYMQLNSLTSEDSAVYYCARKYYGPFGMDYWGQGTSVTVSS
VL: EIFLTQSPAIMSASPGEKVTMTCSASTTVSYVHWYQQKSGTSPKRWLYDTSKLASGIPVRFSGSGSGTSYSLTISSMEAEDAATYYCQQWSSNPYTFGGGTKLEIKR
B16: Mutation 1-36 (antibody, V domains shown)
VH: QVQLQQSGTELAKPGASVKFSCKASGYTFSTYWMYWIKQRPGQGLEWIGYINPSSGHTDYNQRFKDKATLTADKSSSTAYMQLNSLTSEDSAVYYCARRYWGPFGMDYWGQGTSVTVSS
VL: EIFLTQSPAIMSASPGEKVTMTCSASSTVSYVHWYQQKSGTSPKRWLYDTSKIASGIPVRFSGSGSGTSYSLTISSMEAEDAATYYCQQWSTNPYTFGGGTKLEIKR
B17: Mutation 1-40 (antibody, V domains shown)
VH: QVQLQQSGTELAKPGASVKFSCKASGYTFSTYWMYWIKQRPGQGLEWIGYLNPSSGHTDYNQRFKDKATLTADKSSSTAYMQLNSLTSEDSAVYYCARRYFGPFGMDYWGQGTSVTVSS
VL: EIFLTQSPAIMSASPGEKVTMTCSASSTVSYVHWYQQKSGTSPKRWLYDTSKIASGIPVRFSGSGSGTSYSLTISSMEAEDAATYYCQQWSTNPYTFGGGTKLEIKR
B18: Mutation 1-44 (antibody, V domains shown)
VH: QVQLQQSGTELAKPGASVKFSCKASGYTFSTYWMYWIKQRPGQGLEWIGYINPSSGHTDYNQRFKDKATLTADKSSSTAYMQLNSLTSEDSAVYYCARKYYGPFGMDYWGQGTSVTVSS
VL: EIFLTQSPAIMSASPGEKVTMTCSASSSVSYVHWYQQKSGTSPKRWIYDTSKIASGIPVRFSGSGSGTSYSLTISSMEAEDAATYYCQQWSTNPYTFGGGTKLEIKR
B19: Mutation 1-47 (antibody, V domains shown)
VH: QVQLQQSGTELAKPGASVKFSCKASGYTFTTYWMYWIKQRPGQGLEWIGYLNPSTGHTDYNQKFKDKATLTADKSSSTAYMQLNSLTSEDSAVYYCARRYYGPFGMDYWGQGTSVTVSS
VL: EIFLTQSPAIMSASPGEKVTMTCSASTTVSYVHWYQQKSGTSPKRWLYDTSKIASGIPVRFSGSGSGTSYSLTISSMEAEDAATYYCQQWSTQPYTFGGGTKLEIKR

molecular target: T1, cTnI quality control product recombinant protein (human, UniProt P19429 1-210, limits assumed); test: AMC biosensor, antibody on sensor
T1 construct: the assay paragraphs only say cTnI; also called cardiac troponin I; cTnI antigen
T1 sequence (P19429 whole entry): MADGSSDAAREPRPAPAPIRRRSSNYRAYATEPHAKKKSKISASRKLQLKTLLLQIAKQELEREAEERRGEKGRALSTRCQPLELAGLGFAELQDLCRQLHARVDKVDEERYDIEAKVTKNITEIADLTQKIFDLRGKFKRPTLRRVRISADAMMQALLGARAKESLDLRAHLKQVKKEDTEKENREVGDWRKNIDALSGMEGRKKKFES
Method: Operating process: it is equilibrated in Buffer 1 (PBST) for 60 s, the antibody is immobilized in an antibody solution for 300 s, incubated in Buffer 2 (PBST) for 180 s, bound in antigen solution for 420 s, dissociated in the Buffer 2 for 1200 s, 10 mM of GLY solution with pH 1.69 and Buffer 3 are used for sensor regeneration, and data is output.

First: B1
Second: B2
The Kd of the first is 4.1-fold higher: 31.8 nM for the first, 7.73 nM for the second. The second binds more tightly here.

First: B3
Second: B4
The Kd of the first is 1.6-fold lower: 5.72 nM for the first, 9.35 nM for the second. The first binds more tightly here.

Compared with B5, B6 is 5.2-fold higher in Kd: 0.813 nM for the first, 4.19 nM for the second. The first binds more tightly here.

Compared with B7, B8 is 2.4-fold lower in Kd: 3.29 nM for the first, 1.39 nM for the second.

B9 and B10 are within 1.5-fold of each other in Kd: 2.3 nM for the first, 1.73 nM for the second.

First: B11
Second: B12
The Kd of the first is 5.5-fold higher: 9.29 nM for the first, 1.7 nM for the second.

First: B13
Second: B14
The Kd of the first is 1.7-fold higher: 0.941 nM for the first, 0.548 nM for the second.

Compared with B15, B16 is 14-fold higher in Kd: 0.404 nM for the first, 5.49 nM for the second.

B17 and B18 are within 1.5-fold of each other in Kd: 4.16 nM for the first, 4.18 nM for the second.

Work on B19 yielded a Kd of 2.03 nM.

First: B1
Second: B2
The koff of the first is 7.8-fold higher: 0.000922 s⁻¹ for the first, 0.000118 s⁻¹ for the second.

Going from B3 to B4, the koff falls from 0.000211 s⁻¹ to 0.000105 s⁻¹ (2-fold).

Going from B5 to B6, the koff rises from 2.45e-05 s⁻¹ to 0.000155 s⁻¹ (6.3-fold).

B7 and B8 are within 1.5-fold of each other in koff: 6.88e-05 s⁻¹ for the first, 6.64e-05 s⁻¹ for the second.

B9 and B10 are within 1.5-fold of each other in koff: 8.41e-05 s⁻¹ for the first, 8.25e-05 s⁻¹ for the second.

First: B11
Second: B12
The koff of the first is 2.8-fold higher: 0.000173 s⁻¹ for the first, 6.15e-05 s⁻¹ for the second.

B13 and B14 are within 1.5-fold of each other in koff: 1.39e-05 s⁻¹ for the first, 1.78e-05 s⁻¹ for the second.

First: B15
Second: B16
The koff of the first is 4.9-fold lower: 1.92e-05 s⁻¹ for the first, 9.5e-05 s⁻¹ for the second.

First: B17
Second: B18
The koff of the first is 2-fold higher: 0.000138 s⁻¹ for the first, 6.9e-05 s⁻¹ for the second.

In the case of B19, the koff is reported as 6.94e-05 s⁻¹.

First: B1
Second: B2
The kon of the first is 1.9-fold higher: 29000 M⁻¹ s⁻¹ for the first, 15300 M⁻¹ s⁻¹ for the second.

Going from B3 to B4, the kon falls from 36900 M⁻¹ s⁻¹ to 11200 M⁻¹ s⁻¹ (3.3-fold).

B5 and B6 are within 1.5-fold of each other in kon: 30100 M⁻¹ s⁻¹ for the first, 37000 M⁻¹ s⁻¹ for the second.

Compared with B7, B8 is 2.3-fold higher in kon: 20900 M⁻¹ s⁻¹ for the first, 47700 M⁻¹ s⁻¹ for the second.

B9 and B10 are within 1.5-fold of each other in kon: 36500 M⁻¹ s⁻¹ for the first, 47800 M⁻¹ s⁻¹ for the second.

Going from B11 to B12, the kon rises from 18600 M⁻¹ s⁻¹ to 36200 M⁻¹ s⁻¹ (1.9-fold).

First: B13
Second: B14
The kon of the first is 2.2-fold lower: 14800 M⁻¹ s⁻¹ for the first, 32400 M⁻¹ s⁻¹ for the second.

Compared with B16, B17 is 1.9-fold higher in kon: 17300 M⁻¹ s⁻¹ for the first, 33200 M⁻¹ s⁻¹ for the second.

Compared with B18, B19 is 2.1-fold higher in kon: 16500 M⁻¹ s⁻¹ for the first, 34100 M⁻¹ s⁻¹ for the second.
